Assay [1] concerns the target HLA-A*02:01/MAGE-A4 complex (human) (UniProt P04439). In words: SPR. For orientation: SPR reads the build-up and loss of mass on a sensor chip optically.
The target is the same in assay [2]. Nature of the assay: SPR (Biacore T200), pMHC on streptavidin chip, 1:1 Langmuir fit.

B1: M1302 (bispecific antibody, from a related filing, V domains shown)
VH: EVQLLESGGGSVQPGGSLRLSCTVSGFSLSNYAMSWVRQAPGKGLEWIGIVSSGGTTYYASWAKGRFTISKDTSKNTVYLQMNSLRAEDTASYYCAKDLYYGPNTDYSAANLWGQGTSVTVSS
VL: SYELTQPPSVSVSPGQTASITCTADTLSRSYASWYQQKPGQSPVLVIYRDTSRPSGIPERFSGSNSGNTATLTISGTQAMDEADYYCATRPSSGSNFQLFGGGTKLTVL
Consider B1, for which the Kd in assay [1] and in assay [2] was 0.6 nM each time.

B2: M1041 (bispecific antibody, from a related filing, V domains shown)
VH: ESQVLESGGGSVQPGGSLRLSCTVSGFSLSNYAMSWVRQAPGKGLEYIGIVSSGGTTYYASWAKGRFTISKDTSKNTVYLQMNSLRAEDTASYYCAKDLYYGPTTYSAFNLWGQGTSVTVSS
VL: SYELTQPPSVSVSPGQTASITCTADTLSRSYASWYQQKPGQSPVLVIYRDTSRPSGIPERFSGSNSGNTATLTISGTQAMDEADYYCATRPSSGSNFQLFGGGTKLTVL
Turning to B2, the Kd was found to be 0.25 nM in assay [1] and 0.24 nM in assay [2].

A word on the Kd: it is the concentration at which binding is half-saturated. Low readings indicate higher affinity, high ones lower affinity.
